Experimental data from the supplement of paper PMC11780869.

System: Bacillus subtilis
Assay: cleaved RNA product abundance (RNA/gDNA barcode ratio) relative to median wild-type variant (ratio to wild type); higher = more accumulation of the downstream cleavage product
Conditions: cleavage site: cggR-gapA (positions -7 to +36 mutated)
Outline: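 B. subtilis strains with chromosomally integrated reporter mRNAs (truncated aprE or tetM) holding barcoded, mutagenized RNase Y cleavage-site windows grew in LB at 37°C from OD600 0.0003 to 0.3. Cleaved product abundance is each construct's RNA:gDNA barcode ratio, scaled to the median construct with the unmutated site. It came from sequencing barcodes of gel-selected, reverse-transcribed cleaved RNA and of genomic DNA.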

[1] = experiment (reporter, strain, medium): exp 4a: truncated aprE reporter, strain BJT201 with 2% xylose (RNase J1 expressed)
[2] = experiment (reporter, strain, medium): exp 2b: truncated aprE reporter, strain BJT200
[3] = experiment (reporter, strain, medium): exp 6: tetM reporter, strain 168

| Sequence | cleaved RNA product abundance [1] | cleaved RNA product abundance [2] | cleaved RNA product abundance [3] |
| --- | --- | --- | --- |
| ACAGACGAAGGAGCCGCAAAGAAGTTGTTAAGCGATGAATAATCCCTCAATATAAATATCTCTCACTTATTTAAA | 0.0544 |  |  |
| ACAGACGAAGGAGCCGCAAAGAAGTTGTTAAGGAATGAATAATCCCTCAATATAAATATCTCTCACTTATTTAAA | 0.136 |  |  |
| ACAGACGAAGGAGCCGCAAAGAAGTTGTTAAGGCATGAATAATCCCTCAATATAAATATCTCTCACTTATTTAAA |  | 0.103 |  |
| ACAGACGAAGGAGCCGCAAAGAAGTTGTTAAGGGAAGAATAATCCCTCAATATAAATATCTCTCACTTATTTAAA | 0.246 |  |  |
| ACAGACGAAGGAGCCGCAAAGAAGTTGTTAAGGGATAAATAATCCCTCAATATAAATATCTCTCACTTATTTAAA | 0.688 | 0.279 |  |
| ACAGACGAAGGAGCCGCAAAGAAGTTGTTAAGGGATGAATAAACCCTCAATATAAATATCTCTCACTTATTTAAA | 0.2 |  |  |
| ACAGACGAAGGAGCCGCAAAGAAGTTGTTAAGGGATGAATAATACCTCAATATAAATATCTCTCACTTATTTAAA |  | 0.101 | 0.134 |
| ACAGACGAAGGAGCCGCAAAGAAGTTGTTAAGGGATGAATAATCACTCAATATAAATATCTCTCACTTATTTAAA | 0.0768 |  |  |
| ACAGACGAAGGAGCCGCAAAGAAGTTGTTAAGGGATGAATAATCCCTAAATATAAATATCTCTCACTTATTTAAA | 0.376 | 0.274 |  |
| ACAGACGAAGGAGCCGCAAAGAAGTTGTTAAGGGATGAATAATCCCTCAAAATAAATATCTCTCACTTATTTAAA | 0.316 |  |  |
| ACAGACGAAGGAGCCGCAAAGAAGTTGTTAAGGGATGAATAATCCCTCAATATAAATACCTCTCACTTATTTAAA | 0.182 |  |  |
| ACAGACGAAGGAGCCGCAAAGAAGTTGTTAAGGGATGAATAATCCCTCAATATAAATATCTCTCACTTATTTAAA | 0.453 | 0.357 | 0.537 |
| ACAGACGAAGGAGCCGCAAAGAAGTTGTTAAGGGATGAATAATCCCTCTATATAAATATCTCTCACTTATTTAAA | 0.411 |  |  |
| ACAGACGAAGGAGCCGCAAAGAAGTTGTTAAGGGATGAATAATCCCTTAATATAAATATCTCTCACTTATTTAAA | 0.892 |  |  |
| ACAGACGAAGGAGCCGCAAAGAAGTTGTTAAGGGATGAATAATCCGTCAATATAAATATCTCTCACTTATTTAAA | 0.418 |  |  |
| ACAGACGAAGGAGCCGCAAAGAAGTTGTTAAGGGATGAATAATTCCTCAATATAAATATCTCTCACTTATTTAAA | 0.404 |  |  |
| ACAGACGAAGGAGCCGCAAAGAAGTTGTTAAGGGCTGAATAATCCCTCAATATAAATATCTCTCACTTATTTAAA | 0.198 |  |  |
| ACAGACGAAGGAGCCGCAAAGAAGTTGTTAAGGTATGAATAATCCCTCAATATAAATATCTCTCACTTATTTAAA | 0.12 |  |  |
| ACAGACGAAGGAGCCGCAAAGAAGTTGTTAAGTGATGAATAATCCCTCAATATAAATATCTCTCACTTATTTAAA | 0.0952 |  |  |
| ACAGACGAAGGAGCCGCAAAGAAGTTGTTCAGGGATGAATAATCCCTCAATATAAATATCTCTCACTTATTTAAA | 0.446 |  |  |
| ACAGACGAAGGAGCCGCAAAGAAGTTTATAAGGGATGAATAATCCCTCAATATAAATATCTCTCACTTATTTAAA | 0.438 |  |  |
| ACAGACGAAGGAGCCGCAAAGAAGTTTATTAAGGGATGAATAATCCCTCAATATAAATATCTCTCACTTATTTAA | 0.754 |  |  |
| ACAGACGAAGGAGCCGCAAAGAAGTTTCTAAGGGATGAATAATCCCTCAATATAAATATCTCTCACTTATTTAAA | 0.344 | 0.234 |  |
| ACAGACGAAGGAGCCGCAAAGAAGTTTTAAGGGATGAATAATCCCTCAATATAAATATCTCTCACTTATTTAAAG | 0.15 |  |  |
| ACAGACGAAGGAGCCGCAAAGAAGTTTTTAAAGGATGAATAATCCCTCAATATAAATATCTCTCACTTATTTAAA | 0.192 |  |  |
| ACAGACGAAGGAGCCGCAAAGAAGTTTTTAACGGATGAATAATCCCTCAATATAAATATCTCTCACTTATTTAAA | 0.197 |  | 0.192 |
| ACAGACGAAGGAGCCGCAAAGAAGTTTTTAAGAGATGAATAATCCCTCAATATAAATATCTCTCACTTATTTAAA | 0.183 |  |  |

| Sequence | cleaved RNA product abundance [1] | cleaved RNA product abundance [2] | cleaved RNA product abundance [3] |
| --- | --- | --- | --- |
| ACAGACGAAGGAGCCGCAAAGAAGTTTTTAAGGAATGAATAATCCCTCAATATAAATATCTCTCACTTATTTAAA | 0.163 | 0.0825 |  |
| ACAGACGAAGGAGCCGCAAAGAAGTTTTTAAGGCATGAATAATCCCTCAATATAAATATCTCTCACTTATTTAAA | 0.119 |  |  |
| ACAGACGAAGGAGCCGCAAAGAAGTTTTTAAGGGAAGAATAATCCCTCAATATAAATATCTCTCACTTATTTAAA | 0.149 | 0.128 |  |
| ACAGACGAAGGAGCCGCAAAGAAGTTTTTAAGGGACGAATAATCCCTCAATATAAATATCTCTCACTTATTTAAA | 0.444 |  |  |
| ACAGACGAAGGAGCCGCAAAGAAGTTTTTAAGGGATAAATAATCCCTCAATATAAATATCTCTCACTTATTTAAA | 0.214 |  |  |
| ACAGACGAAGGAGCCGCAAAGAAGTTTTTAAGGGATCAATAATCCCTCAATATAAATATCTCTCACTTATTTAAA | 0.289 |  |  |
| ACAGACGAAGGAGCCGCAAAGAAGTTTTTAAGGGATGAAAAATCCCTCAATATAAATATCTCTCACTTATTTAAA | 0.293 |  |  |
| ACAGACGAAGGAGCCGCAAAGAAGTTTTTAAGGGATGAATAAACCCTCAATATAAATATCTCTCACTTATTTAAA | 0.17 |  |  |
| ACAGACGAAGGAGCCGCAAAGAAGTTTTTAAGGGATGAATAATCACTCAATATAAATATCTCTCACTTATTTAAA | 0.0945 | 0.125 |  |
| ACAGACGAAGGAGCCGCAAAGAAGTTTTTAAGGGATGAATAATCCATCAATATAAATATCTCTCACTTATTTAAA | 0.189 | 0.178 |  |
| ACAGACGAAGGAGCCGCAAAGAAGTTTTTAAGGGATGAATAATCCCACAATATAAATATCTCTCACTTATTTAAA | 0.251 |  |  |
| ACAGACGAAGGAGCCGCAAAGAAGTTTTTAAGGGATGAATAATCCCGCAATATAAATATCTCTCACTTATTTAAA | 0.137 |  |  |
| ACAGACGAAGGAGCCGCAAAGAAGTTTTTAAGGGATGAATAATCCCTAAATATAAATATCTCTCACTTATTTAAA |  | 0.364 |  |
| ACAGACGAAGGAGCCGCAAAGAAGTTTTTAAGGGATGAATAATCCCTCAACATAAATATCTCTCACTTATTTAAA | 0.295 |  |  |
| ACAGACGAAGGAGCCGCAAAGAAGTTTTTAAGGGATGAATAATCCCTCAATAAAAATATCTCTCACTTATTTAAA | 0.0781 |  |  |
| ACAGACGAAGGAGCCGCAAAGAAGTTTTTAAGGGATGAATAATCCCTCAATATAAACATCTCTCACTTATTTAAA | 0.208 |  |  |
| ACAGACGAAGGAGCCGCAAAGAAGTTTTTAAGGGATGAATAATCCCTCAATATAAATATCTCTCACTTATTTAAA | 0.365 | 0.274 | 0.209 |
| ACAGACGAAGGAGCCGCAAAGAAGTTTTTAAGGGATGAATAATCCCTCAATATACATATCTCTCACTTATTTAAA | 0.364 |  |  |
| ACAGACGAAGGAGCCGCAAAGAAGTTTTTAAGGGATGAATAATCCCTCAATTTAAATATCTCTCACTTATTTAAA | 0.188 |  |  |
| ACAGACGAAGGAGCCGCAAAGAAGTTTTTAAGGGATGAATAATCCCTCACTATAAATATCTCTCACTTATTTAAA | 0.267 |  |  |
| ACAGACGAAGGAGCCGCAAAGAAGTTTTTAAGGGATGAATAATCCCTCATTATAAATATCTCTCACTTATTTAAA | 0.405 |  |  |
| ACAGACGAAGGAGCCGCAAAGAAGTTTTTAAGGGATGAATAATCCCTTAATATAAATATCTCTCACTTATTTAAA | 0.798 | 0.844 |  |
| ACAGACGAAGGAGCCGCAAAGAAGTTTTTAAGGGATGAATAATCCGTCAATATAAATATCTCTCACTTATTTAAA | 0.321 | 0.133 |  |
| ACAGACGAAGGAGCCGCAAAGAAGTTTTTAAGGGATGAATAATGCCTCAATATAAATATCTCTCACTTATTTAAA | 0.17 | 0.121 |  |
| ACAGACGAAGGAGCCGCAAAGAAGTTTTTAAGGGATGAATAATTCCTCAATATAAATATCTCTCACTTATTTAAA | 0.195 | 0.177 |  |
| ACAGACGAAGGAGCCGCAAAGAAGTTTTTAAGGGATGAATATTCCCTCAATATAAATATCTCTCACTTATTTAAA | 0.341 | 0.214 |  |
| ACAGACGAAGGAGCCGCAAAGAAGTTTTTAAGGGATGACTAATCCCTCAATATAAATATCTCTCACTTATTTAAA | 0.212 | 0.201 |  |
